The source of these data is US20210155670A1, “SYSTEMS AND METHODS FOR THE PREPARATION OF PEPTIDE-MHC-I COMPLEXES WITH NATIVE GLYCAN MODIFICATIONS” (The Regents of the University of California, priority 2019, published 2021).

In this test the target is T cell receptor specific for HLA-A*02:01/NYESO, on Jurkat cells / NY-ESO-1 specific T cell line. Kind of test: flow cytometry, PE tetramer staining; the negative cells are said to have lost the TCR. For orientation: Flow cytometry measures light scatter and fluorescence of single cells or particles in a stream.

Substance “CHO-derived PE-HLA-A*02:01 tetramer loaded with NY-ESO-1 peptide (single-chain complex, TAPBPR-exchanged) (peptide-MHC)” gave a tetramer-negative population of cells of 9%. In the case of “conventionally refolded NYESO/HLA-A*02:01 tetramer (from UniProt P61769 21-119) (peptide-MHC)” it was 9%.
